Results on 16 molecules are retold here after patent US20160208018A1 (JUNO THERAPEUTICS, published 2016).

Assay [1] has as its target T1, Mouse ROR1 (mouse, UniProt Q9Z139 30-937).
T1 construct: also called mROR1; K562/mouse ROR1
Description: inferred from IFN-gamma release of CAR T cells on K562/mouse ROR1 cells. As to the method: Cytokine release was assessed following incubation of the CAR-expressing cells with either K562/human ROR1 (hROR1) or K562/mouse ROR1 (mROR1) antigen-expressing cells. Transduced CD8+ T cells were co-cultured with antigen-expressing cells at a single effector to target (E:T). The co-cultured cells were incubated for about 24 hours, and then supernatants were collected for measurement of IFN-γ using a cytokine immunoassay.

For assay [2], the target named is T2, Human ROR1 (receptor tyrosine kinase-like orphan receptor 1) (human, UniProt Q01973 30-937).
T2 construct: also called hROR1; K562/ROR1
As to the kind of experiment: flow cytometry on ROR1-expressing cells; predicted plateau relative to R12 scFv = 100%. As to the method: (§1) Additionally, percent (%) maximum (max) binding to ROR1-expressing cells and % max competition with the reference antibody (R12 scFv) were calculated. Percent max binding and competition values were calculated based on predicted plateaus (measured by Prism® using four parameter non-linear regression), relative to values for R12 scFv binding and inhibition, respectively, assigned as 100% in each study.
(§2) Assays also were performed to assess competition (measured as half maximal inhibitory concentration (IC₅₀)) of the clones with the R12 scFv reference antibody for binding to ROR1-expressing cells, as described in Example 1. Percent (%) max ROR1 and % max competition, as compared to the R12 scFv reference antibody, were determined as described in Example 1.

The target in assay [3] is T2, Human ROR1 (receptor tyrosine …). As to the kind of experiment: flow cytometry on ROR1-expressing K562 and CHOK1 cells (n = 1). (In general: Flow cytometry measures light scatter and fluorescence of single cells or particles in a stream.)
Assay [4] shares this target. Description: flow cytometry competition, competitor R12 scFv on ROR1-expressing cells (n = 1). As to the method: (§3) Assays also were performed to assess competition of the clones with the reference antibody (R12 scFv), for binding to ROR1-expressing cells. VH clones were titrated against 2 nM Myc-R12 on ROR1/K562 cells and competition assessed with an anti-Myc-Alexa647 secondary antibody, and the half maximal inhibitory concentration (IC₅₀) determined for respective clones.
as §2

Assay [5] shares this target. As to the kind of experiment: competition with R12 scFv on ROR1-expressing cells; predicted plateau relative to R12 scFv = 100%. As to the method: as §1, §2
For assay [6] the target is unchanged. As to the kind of experiment: flow cytometry competition, competitor 2 nM Myc-R12 scFv on ROR1/K562 cells (n = 1). As to the method: as §3
The target is the same in assay [7]. Description: competition with Myc-R12 scFv on ROR1/K562 cells; predicted plateau relative to R12 scFv = 100%. As to the method:
as §3, §1

Assay [8] shares this target. Description: flow cytometry on ROR1-expressing cells; predicted plateau relative to R12 scFv = 100%. As to the method:
as §1
The source holds these as a separate data set.

Assay [9] has the same target. As to the kind of experiment: flow cytometry on ROR1-expressing K562 and CHOK1 cells (n = 1). The source holds these as a separate data set.

Like-named read-outs stand apart in the source and are kept apart here.

T2 sequence (Q01973 30-937): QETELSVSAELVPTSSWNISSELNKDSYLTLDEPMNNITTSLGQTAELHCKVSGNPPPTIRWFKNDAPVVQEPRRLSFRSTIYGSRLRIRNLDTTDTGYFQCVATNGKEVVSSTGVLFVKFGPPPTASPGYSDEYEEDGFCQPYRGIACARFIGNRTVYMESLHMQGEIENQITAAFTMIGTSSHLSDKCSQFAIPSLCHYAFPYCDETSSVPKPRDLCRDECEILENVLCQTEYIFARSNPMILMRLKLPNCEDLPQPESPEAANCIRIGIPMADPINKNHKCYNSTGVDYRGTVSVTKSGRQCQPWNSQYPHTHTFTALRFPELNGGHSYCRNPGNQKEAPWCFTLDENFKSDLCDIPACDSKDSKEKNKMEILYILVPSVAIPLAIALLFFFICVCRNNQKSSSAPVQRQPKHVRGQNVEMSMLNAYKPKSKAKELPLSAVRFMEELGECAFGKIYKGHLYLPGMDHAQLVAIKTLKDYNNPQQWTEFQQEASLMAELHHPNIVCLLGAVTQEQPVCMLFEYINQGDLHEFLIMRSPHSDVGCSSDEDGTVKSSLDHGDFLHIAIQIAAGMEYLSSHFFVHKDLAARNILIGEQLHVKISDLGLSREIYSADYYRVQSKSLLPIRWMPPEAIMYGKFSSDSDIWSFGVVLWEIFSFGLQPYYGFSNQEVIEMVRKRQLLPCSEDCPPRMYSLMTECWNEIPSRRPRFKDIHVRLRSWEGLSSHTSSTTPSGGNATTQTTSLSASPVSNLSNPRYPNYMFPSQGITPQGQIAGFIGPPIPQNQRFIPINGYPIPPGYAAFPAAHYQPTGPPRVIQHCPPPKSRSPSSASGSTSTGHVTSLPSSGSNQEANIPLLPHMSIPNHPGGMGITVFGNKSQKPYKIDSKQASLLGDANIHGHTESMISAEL
T1 sequence (Q9Z139 30-937): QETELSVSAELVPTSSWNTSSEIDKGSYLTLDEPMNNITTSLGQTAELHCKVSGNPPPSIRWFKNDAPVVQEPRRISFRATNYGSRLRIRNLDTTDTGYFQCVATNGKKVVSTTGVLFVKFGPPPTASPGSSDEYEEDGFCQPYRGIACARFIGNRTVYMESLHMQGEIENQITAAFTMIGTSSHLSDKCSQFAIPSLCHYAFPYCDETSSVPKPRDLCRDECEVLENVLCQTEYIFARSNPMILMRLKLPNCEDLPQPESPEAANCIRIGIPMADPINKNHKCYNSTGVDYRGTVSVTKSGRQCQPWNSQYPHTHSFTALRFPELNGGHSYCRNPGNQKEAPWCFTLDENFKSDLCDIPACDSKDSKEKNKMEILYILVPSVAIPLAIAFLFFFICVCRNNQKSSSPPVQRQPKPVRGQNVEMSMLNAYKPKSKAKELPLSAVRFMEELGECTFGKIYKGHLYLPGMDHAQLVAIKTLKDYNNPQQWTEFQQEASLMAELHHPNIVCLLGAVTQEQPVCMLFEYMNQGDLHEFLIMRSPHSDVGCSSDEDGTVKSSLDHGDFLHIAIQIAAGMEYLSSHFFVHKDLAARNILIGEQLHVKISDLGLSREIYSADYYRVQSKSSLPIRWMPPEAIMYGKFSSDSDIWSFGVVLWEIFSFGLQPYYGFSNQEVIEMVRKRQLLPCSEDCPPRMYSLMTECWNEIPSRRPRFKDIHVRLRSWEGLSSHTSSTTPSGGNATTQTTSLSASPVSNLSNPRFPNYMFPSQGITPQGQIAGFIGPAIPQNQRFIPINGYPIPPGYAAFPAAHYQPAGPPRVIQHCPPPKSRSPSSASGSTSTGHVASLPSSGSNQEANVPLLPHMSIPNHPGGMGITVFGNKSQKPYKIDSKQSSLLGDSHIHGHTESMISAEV

B1: CAR containing Clone 298 scFv (VH-VL) (other)
chain: EVQLVESGGGLVQPGRSLRLSCTASGFTFGDYAMSWVRQAPGKGLEWVSSISGSGRSTDHADYVKGRFTISRDNSKNTVYLQMNRLRAEDTAVYYCAKVSNYEYYFDYWAQGTLVTVSSGGGGSGGGGSGGGGSEIVLTQSPSVSVAPGQTARITCGGSNIGSESVNWYQWKSGQVPVLVVSDTTDRPSGIPGRFTGTRSGTTATLTISGVEAGDEADYHCQVWDDTGDHPVFGGGTKLTVL
notes: Chimeric antigen receptor expressed on primary human CD8+ T cells; tEGFR marker is split off by T2A; also called 298 CAR; not shown: Ig-derived hinge only spacer, human CD28-derived transmembrane domain, human 4-1BB-derived intracellular signaling domai
For B1, the binding result in assay [1] is given as “binds”.

B2: Clone 298 scFv (scFv)
scFv: EVQLVESGGGLVQPGRSLRLSCTASGFTFGDYAMSWVRQAPGKGLEWVSSISGSGRSTDHADYVKGRFTISRDNSKNTVYLQMNRLRAEDTAVYYCAKVSNYEYYFDYWAQGTLVTVSSGGGGSGGGGSGGGGSEIVLTQSPSVSVAPGQTARITCGGSNIGSESVNWYQWKSGQVPVLVVSDTTDRPSGIPGRFTGTRSGTTATLTISGVEAGDEADYHCQVWDDTGDHPVFGGGTKLTVL
Take B2: the “% Max Binding” value in [2] was 96%. Also, the concentration giving a half-maximal response (EC50) in assay [3] is 5.9 nM. For the same molecule, the half-maximal inhibitory concentration (IC50) in assay [4] is 41.3 nM. Moreover, in assay [5], the “% Max Competition” value was 88%.

B3: Clone 366 scFv (scFv)
scFv: EVQLVESGGGLVQPGRSLRLSCTASGFTFGDYAMSWVRQAPGKGLEWVSSISGSGRSTDHADYVKGRFTISRDNSKNTVYLQMNRLRAEDTAVYYCAKVSNYEYYFDYWAQGTLVTVSSQSVLTQPPSVPGTPGQRVTITCSGSRFNIGSNTVNWYQQLPGTAPKLLIYSNNQRPSGVPDRFSGSKSGTSASLAISGLQSEDEADYYCAAWDDSLNGYVFGTGTKLTVL
notes: Printed without a linker
B3: the “% Max Binding” value in assay [2] is 104%. Also, in [3], the EC50 worked out at 10 nM. The half-inhibitory concentration (IC50) in [4] is 53.9 nM. The “% Max Competition” value in [5] was 71%.

B4: Clone V331 (VHH)
VHH: QVQLQQWGAGLLKPSETLSLTCAVYGGSFSGYYWSWIRQPPGKGLEWIGKINHSGSTNYNPSLKSRVTISVDTSKNQFSLKLSSVTAADTAVYYCARGQIAAHVWGWFDPWGQGTLVTVSS
notes: human VH-only single-domain antibody, no VL
Take B4: in assay [6], the IC50 is 32.4 nM. Also, in [7], the “% Max Competition” value is 31%. The “% Max Binding” value in assay [8] was 70%. Also, the concentration giving a half-maximal response (EC50) in [9] was 18.8 nM.

B5: Clone 305 scFv (scFv)
scFv: EVQLVESGGGLVQPGRSLRLSCTASGFTFGDYAMSWVRQAPGKGLEWVSSISGSGRSTDHADYVKGRFTISRDNSKNTVYLQMNRLRAEDTAVYYCAKVSNYEYYFDYWAQGTLVTVSSQSVLTQPPSVSVAPGQTARITCGGNNIGSTSVHWFQQKPGQAPVLVVYDDSDRPSGIPERFSGSNSGNTATLTISRVEAGDEADYYCQVWDNDSDHRVFGGGTKLTVL
Regarding B5, in assay [2], the “% Max Binding” value is 86%. The 50% effective concentration (EC50) in [3] amounted to 5.1 nM. Also, the IC50 in [4] worked out at 62.5 nM. Also, the “% Max Competition” value in assay [5] was 97%.

B6: Clone V312 (VHH)
VHH: EVQLVESGGGLVKPRGSLRLSCAASGFTFSNAWMSWVRQAPGKGLEWVGRIKSKTDGGTTDYAAPVKGRFTISRDDSKNTLYLQMNSLKTEDTAVYYCARTSRGRFLEWLLFDYWGQGTLVTVSS
notes: as for B4
As to B6, in [6], the concentration for half-maximal inhibition (IC50) was determined as 5.6 nM. For the same molecule, in assay [7], the “% Max Competition” value was 19%. The “% Max Binding” value in [8] was 29%. The molecule further had an EC50 in assay [9] of 23.7 nM.

B7: Clone V128 (VHH)
VHH: EVQLLESGGGVVQPGGSLRLSCAASGFTFDTFWMSWVRQAPGKGLEWVGRIKSKTDGGTTDYAAPVKGRFTISRDDSKNTLYLQMNSLKTEDTAVYYCARDFGRWSYYFDYWSQGTLVTVSS
notes: as for B4
Regarding B7, the IC50 in assay [6] was above 200 nM.

B8: Clone V163 (VHH)
VHH: QVQLVESGGGLVKPGGSLRLSCAASGFTFSNAWMSWVRQAPGKGLEWVGRIKSKTDGGTTDYAAPVKGRFTISRDDSKNTLYLQMNSLKTEDTAVYYCARQGDSSSWYVEVYYFDYWGQGTLVTVSS
notes: as for B4
Regarding B8, the IC50 in [6] is 154 nM. Besides, the “% Max Competition” value in [7] is 58%. Besides, the “% Max Binding” value in [8] is 122%. In assay [9], the EC50 worked out at 92.9 nM.

B9: CAR containing Clone 83B scFv (VH-VL) (other)
chain: QVQLVQSGAEVKKPGASVKVSCKASGYTFTSYYMHWVRQAPGQGLEWMGIINPNGGSTSYAQKFQGRVTMTRDTSTSTVYMELSSLRSEDTAVYYCARDSSYDAFDIWGQGTMVTVSSGGGGSGGGGSGGGGSAIQLTQSPSTLSASVGDRVTITCQASQDISNYLNWYQQKPGKAPKLLINDASYLETGVPSRFSGSGSGTDFTLTISSLQPEDIATYYCQQYESLPYTFGQGTKLEIK
notes: Chimeric antigen receptor expressed on primary human CD8+ T cells; tEGFR marker is split off by T2A; also called 83B CAR; not shown: Ig-derived hinge only spacer, human CD28-derived transmembrane domain, human 4-1BB-derived intracellular signaling domai
Take B9: the binding result in assay [1] is given as “binds”.

B10: Clone 83B scFv (scFv)
scFv: QVQLVQSGAEVKKPGASVKVSCKASGYTFTSYYMHWVRQAPGQGLEWMGIINPNGGSTSYAQKFQGRVTMTRDTSTSTVYMELSSLRSEDTAVYYCARDSSYDAFDIWGQGTMVTVSSGGGGSGGGGSGGGGSAIQLTQSPSTLSASVGDRVTITCQASQDISNYLNWYQQKPGKAPKLLINDASYLETGVPSRFSGSGSGTDFTLTISSLQPEDIATYYCQQYESLPYTFGQGTKLEIK
notes: De-glycosylation variant of clone 83 (S to N at VH position 53, Kabat)
For the molecule B10, in assay [2], the “% Max Binding” value was 140%. This molecule also returned an EC50 in assay [3] of 6.4 nM. This molecule also displayed an IC50 in assay [4] of 15 nM. Moreover, the “% Max Competition” value in [5] was 103%.

B11: Clone V278 (VHH)
VHH: QITLKESGGGLVQPGGSLRLSCAASGFTFSSYAMSWVRQAPGKGLEWVSAISGSGGSTYYADSVKGRFTISRDNSKNTLYLQMNSLRAEDTAVYYCAKERSRWGDNWFDPWGQGTLVTVSS
notes: as for B4
For the molecule B11, in [8], the “% Max Binding” value is 22%. In assay [9], this molecule gave an EC50 of 31.5 nM.

B12: Clone V181 (VHH)
VHH: QITLKESGGGLVKPGRSLRLSCTASGFTFGDYAMSWFRQAPGKGLEWVGFIRSKAYGGTTEYAASVKGRFTISRDDSKSIAYLQMNSLKTEDTAVYYCAKDFEVREAHLSYFDYWGQGTLVTVSS
notes: as for B4
B12: the half-maximal inhibitory concentration (IC50) in assay [6] was above 200 nM. In assay [7], the “% Max Competition” value is 76%.

B13: Clone V420 (VHH)
VHH: QVQLVESGGGLVQPGGSLRLSCAASGFTFSSYWMSWVRQAPGKGLEWVANIKQDGSEKYYVDSVKGRFTISRDNAKNSLYLQMNSLRAEDTAVYYCARVNGGEYYFDYWGQGTLVTVSS
notes: as for B4
B13 had a 50% inhibitory concentration (IC50) in assay [6] of 71.5 nM. Besides, the “% Max Competition” value in [7] is 58%. Further, the “% Max Binding” value in assay [8] was 74%. The same molecule returned a concentration giving a half-maximal response (EC50) in assay [9] of 8 nM.

B14: Clone V282 (VHH)
VHH: EVQLVESGGGLVQPGGSLRLSCAASGFTFSSYWMSWVRQAPGKGLEWVANIKQDGSEKYYVDSVKGRFTISRDNAKNSLYLQMNSLRAEDTAVYYCARVRGSEYYFDYWGQGTLVTVSS
notes: as for B4
In [6], B14 came in with an IC50 of 94.3 nM. The “% Max Competition” value in assay [7] was 48%. The “% Max Binding” value in [8] is 64%. Also, in assay [9], the response was half-maximal at 13.1 nM (EC50).

B15: Clone V397 (VHH)
VHH: QITLKESGGGLVQPGGSLRLSCAASGFTFSNAWMSWVRQAPGKGLEWVGRIKSKTDGGTTDYAAPLKGRFTISRDDSKNTLYLQMNSLKTEDTAVYYCARAKGLWFGESYYFDYWGQGTLVTVSS
notes: as for B4
B15 displayed a 50% inhibitory concentration (IC50) in [6] of 25.2 nM. In assay [7], the “% Max Competition” value is 18%. Further, the “% Max Binding” value in [8] is 18%. Further, the EC50 in [9] was 49.7 nM.

B16: Clone 350 scFv (scFv)
scFv: EVQLVESGGGLVQPGRSLRLSCTASGFTFGDYAMSWVRQAPGKGLEWVSSISGSGRSTDHADYVKGRFTISRDNSKNTVYLQMNRLRAEDTAVYYCAKVSNYEYYFDYWAQGTLVTVSSQPVLTQPHSVSESPGKTVTISCTRSSGSIASNYVQWYQQRPGSAPTTVIYEDNQRPSGVPDRFSGSIDSSSNSASLTISGLKTEDEADYYCQSYDSSNHVFGTGTKLTVL
For B16, the “% Max Binding” value in assay [2] is 137%. This molecule displayed an EC50 in assay [3] of 22.9 nM. Besides, the IC50 in assay [4] came out at 49.1 nM. The “% Max Competition” value in assay [5] is 80%.

For orientation: EC50 means the concentration at which the effect is half-maximal. Low values mean greater potency, high ones weaker potency. The term IC50 denotes the concentration at which inhibition is half-maximal. A low value points to greater potency in that assay.
